Test results as given in paper PMC7039645 (mAbs, 2020).
Residue numbers refer to the chain shown, from its start.

B1: hu4D5-g3.1 Fab (Fab, V domains shown)
VH: EVQLVESGGGLVQPGGSLRLSCAASGFNIKDTYIHWVRQAPGKGLEWVARIYPTNGYTRYADSVKGRFTISADTSKNTAYLQMNSLRAEDTAVYYCARGHYSSGHPFDYWGQGTLVTVSS
VL: not shown
B2: hu4D5-g3.2 Fab (Fab, V domains shown)
VH: B1 VH with H100I, Y101G, S102N, S103G, G104A, H105E, P106G, F107M
VL: not shown
B3: hu4D5-g2.2 Fab (Fab, V domains shown)
VH: B1 VH with G99S, Y101A, S102L, S103V, G104Y, H105G, P106L, F107I
VL: not shown
B4: hu4D5-g2.1 Fab (Fab, V domains shown)
VH: B1 VH with G99S, Y101K, S102N, S103V, G104M, H105G, P106L, F107V
VL: not shown
B5: F9.13.7 (antibody, V domains shown)
VH: QVQLQQPGAELVKPGASVKLSCKASGYTFTSYWMHWVKQGPGQGLEWIGEIDPSDSYPNYNEKFKGKATLTVDKSSSTAYMQLSSLTSEDSAVYYCASLYYYGTSYGVLDYWGQGTSVTVSS
VL: DIQMTQTTSSLSASLGDRVTISCRASQDISNYLNWYQKKPDGTVKLLIYYTSRLHSGVPSRFSGSGSGTDYSLTIRNLEQEDIATYFCQQGYTLPYTFGGGTKLEIK
B6: hu2C4-g3.1 IgG1 (antibody, V domains shown)
VH: EVQLVESGGGLVQPGGSLRLSCAASGFTFTDYTMDWVRQAPGKGLEWVADVNPNSGGSIYNQRFKGRFTLSVDRSKNTLYLQMNSLRAEDTAVYYCARLMSYGYFDYWGQGTLVTVSS
VL: DIQMTQSPSSLSASVGDRVTITCKASQDVSIGVAWYQQKPGKAPKLLIYSASYRYTGVPSRFSGSGSGTDFTLTISSLQPEDFATYYCQQYYIYPYTFGQGTKVEIK
B7: hu2C4-g2.2 IgG1 (antibody, V domains shown)
VH: EVQLVESGGGLVQPGGSLRLSCAASGFTFTDYTMDWVRQAPGKGLEWVADVNPNSGGSIYNQRFKGRFTLSVDRSKNTLYLQMNSLRAEDTAVYYCARSSRPPWFFDYWGQGTLVTVSS
VL: B6 VL
B8: hu2C4-g2.1 IgG1 (antibody, V domains shown)
VH: B7 VH with R101T, W104F, F106M
VL: B6 VL
B9: hu2C4-g3.2 IgG1 (antibody, V domains shown)
VH: B6 VH with M100L, S101A, F105L
VL: B6 VL
B10: hu2C4-g1.1 IgG1 (antibody, V domains shown)
VH: B7 VH with S99A, S100I, R101A, P102G, P103G, W104V, F105L, F106L
VL: B6 VL
B11: hu2C4-g1.2 IgG1 (antibody, V domains shown)
VH: B7 VH with S99A, S100I, R101T, P102N, P103E, W104V, F105L, F106L
VL: B6 VL

Molecular target: T1, human epidermal growth factor receptor 2 (Homo sapiens, UniProt P04626)
Test: SPR

| Kd [nM] | koff [s⁻¹] | kon [M⁻¹ s⁻¹] | Binder |
| --- | --- | --- | --- |
| 0.39 | 0.00032 | 960000 | B1 |
| 1.8 | 0.0011 | 660000 | B2 |
| 0.33 | 0.00043 | 1.8e+06 | B3 |
| 0.27 | 0.00035 | 1.6e+06 | B4 |

Molecular target: hen egg-white lysozyme (chicken (hen egg-white), UniProt P00698)
Test: SPR

| binding result | Binder |
| --- | --- |
| binds | B5 |

Molecular target: T1, human epidermal growth factor receptor 2
Test: SPR
Remark: another data set of the same source

| Kd [nM] | koff [s⁻¹] | kon [M⁻¹ s⁻¹] | Binder |
| --- | --- | --- | --- |
| 6.4 | 0.0004 | 63000 | B6 |
| 23 | 0.0015 | 65000 | B7 |
| 25 | 0.00096 | 39000 | B8 |
| 9.9 | 0.00057 | 58000 | B9 |
| 25 | 0.0012 | 48000 | B10 |
| 28 | 0.0014 | 49000 | B11 |
